Reference: paper PMC6751199, “A synthetic metabolic network for physicochemical homeostasis” (Nature Communications, 2019)

Columns and labels:
[1] = biological target: T1, OpuA (ATP-driven glycine betaine transporter) (Lactococcus lactis, UniProt Q9RQ05); test: […]-glycine betaine uptake in OpuA/ArcD2 vesicles; type: biochemical; settings: 100 mM KPi pH 7.0, 250 mM KCl, 30 °C; ATP regenerated inside from arginine; 18 µM glycine betaine; labelled compound
T1 construct: gene busAB; ABC transporter complex purified by Ni-Sepharose in DDM (tag not described here), expressed in L. lactis, co-reconstituted with ArcD2 in lipid vesicles
T1 sequence (Q9RQ05 1-573): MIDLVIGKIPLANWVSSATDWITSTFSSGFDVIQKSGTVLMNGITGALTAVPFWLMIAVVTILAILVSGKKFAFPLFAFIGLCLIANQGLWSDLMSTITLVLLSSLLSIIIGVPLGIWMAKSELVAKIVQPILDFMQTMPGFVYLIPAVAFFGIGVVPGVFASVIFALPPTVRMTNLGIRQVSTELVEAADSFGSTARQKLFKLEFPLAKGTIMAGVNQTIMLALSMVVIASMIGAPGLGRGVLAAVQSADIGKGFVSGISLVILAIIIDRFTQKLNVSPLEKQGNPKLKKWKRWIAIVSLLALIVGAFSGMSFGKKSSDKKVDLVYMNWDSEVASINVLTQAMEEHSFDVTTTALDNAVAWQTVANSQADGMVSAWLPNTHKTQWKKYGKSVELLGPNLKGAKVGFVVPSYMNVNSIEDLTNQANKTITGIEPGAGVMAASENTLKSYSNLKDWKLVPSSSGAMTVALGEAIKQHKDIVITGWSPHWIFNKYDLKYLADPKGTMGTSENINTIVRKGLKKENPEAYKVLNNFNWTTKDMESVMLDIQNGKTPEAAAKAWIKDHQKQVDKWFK
T1 sequence (Q9RQ06 1-407 partner): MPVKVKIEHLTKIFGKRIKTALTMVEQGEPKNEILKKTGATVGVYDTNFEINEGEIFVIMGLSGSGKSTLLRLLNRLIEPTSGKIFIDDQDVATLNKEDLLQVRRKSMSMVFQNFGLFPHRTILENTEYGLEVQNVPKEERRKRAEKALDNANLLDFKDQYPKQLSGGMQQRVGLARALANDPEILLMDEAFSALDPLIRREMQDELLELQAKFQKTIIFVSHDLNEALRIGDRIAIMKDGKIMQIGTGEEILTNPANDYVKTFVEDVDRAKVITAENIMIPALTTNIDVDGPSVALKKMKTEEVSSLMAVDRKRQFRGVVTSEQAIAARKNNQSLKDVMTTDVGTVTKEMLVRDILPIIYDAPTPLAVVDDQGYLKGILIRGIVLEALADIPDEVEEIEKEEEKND

[2] = biological target: T2, ArcD2 (arginine/ornithine antiporter) (Lactococcus lactis, UniProt Q9CE19); test: […]-arginine uptake in ArcD2 proteoliposomes loaded with citrulline; type: biochemical; settings: 50 mM KPi pH 7.0, 30 °C; counter-substrate 10 µM 14C-arginine outside; 1 or 10 mM citrulline inside; electrogenic
T2 construct: full length, cleavable C-terminal 10His tag (cleavage not described), expressed in L. lactis JP9000 (arcD1D2 deleted), purified in DDM, reconstituted in DOPE/DOPC/DOPG vesicles
T2 sequence (Q9CE19 1-497): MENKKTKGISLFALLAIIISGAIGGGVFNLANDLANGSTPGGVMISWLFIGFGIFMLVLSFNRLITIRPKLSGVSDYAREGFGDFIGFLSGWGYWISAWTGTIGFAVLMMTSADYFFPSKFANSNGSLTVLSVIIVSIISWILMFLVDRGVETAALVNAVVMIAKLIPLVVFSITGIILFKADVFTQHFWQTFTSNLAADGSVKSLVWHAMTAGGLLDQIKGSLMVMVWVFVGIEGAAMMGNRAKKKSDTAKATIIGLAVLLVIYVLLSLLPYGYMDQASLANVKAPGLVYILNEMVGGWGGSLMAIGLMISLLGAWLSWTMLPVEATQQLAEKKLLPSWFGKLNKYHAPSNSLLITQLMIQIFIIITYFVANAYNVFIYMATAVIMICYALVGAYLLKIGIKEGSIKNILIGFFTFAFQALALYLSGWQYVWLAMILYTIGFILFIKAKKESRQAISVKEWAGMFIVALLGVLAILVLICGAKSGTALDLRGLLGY

[3] = biological target: T2, ArcD2 (arginine/ornithine antiporter); test: […]-arginine uptake in ArcD2 proteoliposomes; type: biochemical; settings: 50 mM KPi pH 7.0, 30 °C; 10 µM arginine outside, counter-substrate L-ornithine inside; labelled compound
purified protein [4] = substrate: NC(=O)OP(=O)(O)O; test: purified protein; type: biochemical, Lactococcus lactis; settings: 50 mM KPi pH 7.0, 30 °C, excess L-ornithine, back reaction (citrulline formation)
purified protein [5] = substrate: NCCC[C@H](N)C(=O)O; test: purified protein; settings: 50 mM KPi pH 7.0, 30 °C, excess carbamoyl-phosphate, back reaction (citrulline formation)
purified protein [6] = substrate: N=C(N)NCCC[C@H](N)C(=O)O; test: purified protein; type: biochemical, Lactococcus lactis; settings: 50 mM KPi pH 7.0, 30 °C, 0-480 µM L-arginine
[7] = substrate: Nc1ncnc2c1ncn2[C@@H]1O[C@H](COP(=O)(O)OP(=O)(O)O)[C@@H](O)[C@H]1O; test: ATP/ADP ratio by PercevalHR fluorescence, pH-corrected with pyranine; type: biochemical, Lactococcus lactis; settings: 50 mM KPi pH 7.0, 5 mM MgSO4, 30 °C, excess carbamoyl-phosphate
[8] = substrate: NC(=O)OP(=O)(O)O; test: as above; type: biochemical, Lactococcus lactis; settings: 50 mM KPi pH 7.0, 5 mM MgSO4, 30 °C, excess ADP

For C[N+](C)(C)CC(=O)[O-] [glycine betaine], the “14C-glycine betaine uptake in OpuA/ArcD2 vesicles” value [1] was “OpuA is constitutively active and imports glycine betaine at the expense of ATP”.

With NC(=O)NCCC[C@H](N)C(=O)O [L-citrulline] the “14C-arginine uptake in ArcD2 proteoliposomes loaded with citrulline” value [2] was “ArcD2 exchanges arginine for citrulline, albeit at a much lower rate”.

N=C(N)NCCC[C@H](N)C(=O)O [L-arginine] was tested, and the “14C-arginine uptake in ArcD2 proteoliposomes” value [3] was “demonstrated exchange of arginine for ornithine”.

B1: ArcB (ornithine transcarbamoylase) (Lactococcus lactis subsp. lactis Il1403) (protein)
chain: MTSPLITKAEVNSVFQGRSLLAEKDFTPAEINYLVDFGLHLKALKQQNIPHHYLEGKNIALLFAKTSTRTRAAFTTAAIDLGAHPEYLGANDIQLGIKESTEDTARVLGSMFDAIERRGFSQKEVEDLAKYSGVPVWNGLTDDWHPTQMIADFMTVKENFGHLKGLTLVYVGDGRNNMANSLIVTGSMLGVNVHIVAPDSLHPTKEVMDIANKFAEKSGAKPLATSNIEEGVKGANIIYSDVWVSMGESNWEERVKLLTPYRITMDMLKMTGNADNGQLIFMHCLPAFHDTETEYGKEIKEKYGLTEMEVTDEVFRSKYARQFEEAENRMHSIKAIMAATLGNLFIPAVPEDFK
notes: full length, cleavable N-terminal 6His tag (cleavage not described), expressed from pNZarcB in L. lactis NZ9000, Ni-Sepharose and Superdex 200
Molecule B1 has a Km (purified protein [4]) of 1900 µM, a kcat (purified protein [4]) of 2900 s⁻¹ and a Km (purified protein [5]) of 700 µM. For the same molecule, the kcat (purified protein [5]) was 2300 s⁻¹.

B2: ArcA (arginine deiminase) (Lactococcus lactis subsp. lactis Il1403) (protein)
chain: MNNGINVNSEIGKLKSVLLHRPGAEVENITPDTMKQLLFDDIPYLKIAQKEHDFFAQTLRDNGAETVYIENLATEVFEKSSETKEEFLSHLLHEAGYRPGRTYDGLTEYLTSMSTKDMVEKIYAGVRKNELDIKRTALSDMAGSDAENYFYLNPLPNAYFTRDPQASMGVGMTINKMTFPARQPESLITEYVMANHPRFKDTPIWRDRNHTTRIEGGDELILNKTTVAIGVSERTSSKTIQNLAKELFANPLSTFDTVLAVEIPHNHAMMHLDTVFTMINHDQFTVFPGIMDGAGNINVFILRPGKDDEVEIEHLTDLKAALKKVLNLSELDLIECGAGDPIAAPREQWNDGSNTLAIAPGEIVTYDRNYVTVELLKEHGIKVHEILSSELGRGRGGARCMSQPLWREDL
notes: full length, cleavable N-terminal 6His tag (cleavage not described), expressed from pNZarcA in L. lactis NZ9000, Ni-Sepharose and Superdex 200
In the case of B2, the Km (purified protein [6]) is reported as 26.5 µM and the kcat (purified protein [6]) is reported as 12 s⁻¹.

B3: ArcC1 (carbamate kinase) (Lactococcus lactis subsp. lactis Il1403) (protein)
chain: MVKRIVVALGGNAILSKDPSAKAQKEALEVTAEQLMPLIKDNDRQMVVTHGNGPQVGNLLLQQLGSDSEKNPAMPLDTVGAMTQGEIGFWTVQAFTRAMANNGLEHYPVISAVTQTLVDENDPAFKNASKPIGPFYTEEQLPEIKKQFPDWELMEDAGRGYRRVVPSPKPLEIIEAKAFGPILESGSLLIASGGGGIPVIKDGKGYQGVEAVIDKDFSAAKLAEMVGADELLILTSGGDVYLNYGKENQVHLETVKVSEMRKYVDEERFAKGSMGPKVEAAVSFVERTGKTATITSLDNVENFVKSGSGTRIVP
notes: full length, cleavable N-terminal 10His tag (cleavage not described), expressed from pNZarcC1 in L. lactis NZ9000, Ni-Sepharose and Superdex 200
In the case of B3, the Km [7] is reported as 1000 µM, the kcat [7] is reported as 310 s⁻¹ and the Km [8] is reported as 700 µM. The kcat [8] was 420 s⁻¹.
